Experimental data: patent US7291458B2, “Leptin-mediated gene-induction” (Vlaams Interuniversitair Instituut Voor Biotechnologie VZW, priority 1998, dated 2007)

System: PC12 cells
Experiment: RDA of PC12 cells transiently transfected with pMET7-mLRlo
Type: cell-based, rat
Details: leptin-forskolin co-stimulated versus forskolin alone
Procedure: To search for genes regulated by leptin in the PC12 cell line, a RDA (representational difference analysis) experiment was performed using a modification of the original method (Hubank and Schatz, 1994). Using this procedure, it is possible to clone amplicons corresponding to transcripts from leptin-forskolin co-stimulated PC12 cells, transiently transfected with pMET7-mLRlo. After three rounds of subtraction/amplification, selectively amplified bands were purified and subcloned in the pCDNA3 or pCR-Blunt vector (Invitrogen). […] Based on this observation, a simple one-tube RT-PCR based procedure was set up to select for PC12 subclones, stably expressing the leptin receptor long isoform (FIG. 2 portion A). One stable clone, PC12-LR8, was chosen for further experiments (FIG. 2 portion B). Individual inserts from the cloned amplicon collection were radiolabeled and leptin-dependent gene regulation was verified and studied in more detail by Northern blot analysis on the PC12-LR8 cell line.
RDA was used to clone differentially expressed cDNAs from PC12 cells, transiently transfected with the leptin receptor long isoform, or from neuronal differentiated PC12-LR8 cells, which stably express the leptin receptor long isoform. In both cases, cloning was performed using mRNA from cells either stimulated with leptin+forskolin or with forskolin alone. […]

B1: leptin: mouse leptin (R&D Systems), ob gene product, used on PC12 cells at 100 ng/ml (protein)
chain: VPIQKVQDDTKTLIKTIVTRINDISHTQSVSAKQRVTGLDFIPGLHPILSLSKMDQTLAVYQQVLTSLPSQNVLQIANDLENLRDLLHLLAFSKSCSLPQTSGLQKPESLDGVLEASLYSTEVVALSRLQGSLQDILQQLDVSPEC
induction of rat Pancreatitis Associated Protein I (rPAP I) transcript: strongly induced
